The values below come from patent US20090092581A1.

Values joined by “and” are separate entries in the source; they are usually repeats but may differ in a detail not shown here. Identical values can stand only once.

The target in experiment [1] is T1, Type I IFN receptor on iLite human IFN-α gene-reporter cells (human) (UniProt P17181).
T1 sequence (looked up) 1: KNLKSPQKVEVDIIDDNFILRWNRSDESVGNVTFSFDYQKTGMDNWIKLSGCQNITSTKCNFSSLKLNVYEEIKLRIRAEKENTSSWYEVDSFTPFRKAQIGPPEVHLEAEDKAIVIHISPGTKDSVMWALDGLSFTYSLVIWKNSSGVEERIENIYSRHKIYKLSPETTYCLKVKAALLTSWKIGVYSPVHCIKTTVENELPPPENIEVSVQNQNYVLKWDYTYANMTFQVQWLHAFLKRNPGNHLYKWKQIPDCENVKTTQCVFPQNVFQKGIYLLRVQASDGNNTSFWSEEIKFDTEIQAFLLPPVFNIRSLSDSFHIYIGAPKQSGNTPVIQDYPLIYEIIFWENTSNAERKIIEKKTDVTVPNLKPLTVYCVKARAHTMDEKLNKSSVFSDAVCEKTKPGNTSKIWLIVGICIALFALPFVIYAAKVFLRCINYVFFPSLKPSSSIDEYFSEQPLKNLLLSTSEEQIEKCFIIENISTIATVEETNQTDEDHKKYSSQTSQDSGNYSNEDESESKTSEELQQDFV
T1 sequence (looked up) 2: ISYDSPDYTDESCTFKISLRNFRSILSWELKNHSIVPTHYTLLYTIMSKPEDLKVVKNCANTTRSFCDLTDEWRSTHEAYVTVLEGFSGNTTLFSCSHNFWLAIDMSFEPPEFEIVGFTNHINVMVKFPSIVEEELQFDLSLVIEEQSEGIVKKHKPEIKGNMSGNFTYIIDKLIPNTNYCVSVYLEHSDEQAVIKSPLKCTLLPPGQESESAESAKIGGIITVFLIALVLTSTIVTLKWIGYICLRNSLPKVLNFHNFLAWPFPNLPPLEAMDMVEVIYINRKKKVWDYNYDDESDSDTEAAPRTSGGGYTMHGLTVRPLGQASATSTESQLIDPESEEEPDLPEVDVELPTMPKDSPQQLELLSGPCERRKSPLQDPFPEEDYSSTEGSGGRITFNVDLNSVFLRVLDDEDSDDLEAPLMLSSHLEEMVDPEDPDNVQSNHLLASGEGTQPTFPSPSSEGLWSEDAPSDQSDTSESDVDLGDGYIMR
In words: cell-based or functional assay.

In experiment [2] the target is Cynomolgus IFN-α protein SEQ ID 42, expressed in Vero tissue culture supernatant (Cynomolgus (Macaca fascicularis)). Briefly: ELISA kit PBL #41105 on Vero supernatant; read against human IFN-α2a standard curve; unit not given.
In experiment [3] the target is Cynomolgus IFN-α protein SEQ ID 46, expressed in Vero tissue culture supernatant (Cynomolgus (Macaca fascicularis)). The description is as above.
Experiment [4] addresses Cynomolgus IFN-α protein SEQ ID 50, expressed in Vero tissue culture supernatant (Cynomolgus (Macaca fascicularis)). Described as above.
The target in experiment [5] is Cynomolgus IFN-α protein SEQ ID 56, expressed in Vero tissue culture supernatant (Cynomolgus (Macaca fascicularis)). The description is as above.
In experiment [6] the target is Cynomolgus IFN-α protein SEQ ID 58, expressed in Vero tissue culture supernatant (Cynomolgus (Macaca fascicularis)). The description is as above.
The target in experiment [7] is Cynomolgus IFN-α protein SEQ ID 60, expressed in Vero tissue culture supernatant (Cynomolgus (Macaca fascicularis)). The description is as above.
For experiment [8], the target named is Cynomolgus IFN-α protein SEQ ID 62, expressed in Vero tissue culture supernatant (Cynomolgus (Macaca fascicularis)). The experiment is described as above.
Experiment [9] has as its target Cynomolgus IFN-α protein SEQ ID 66, expressed in Vero tissue culture supernatant (Cynomolgus (Macaca fascicularis)). The experiment is described as above.
Experiment [10] deals with Cynomolgus IFN-α protein SEQ ID 54, expressed in Vero tissue culture supernatant (Cynomolgus (Macaca fascicularis)). In words: ELISA kit PBL #41105 on Vero supernatant; read against human IFN-α2a standard curve; unit not given; first of two values. A general note: ELISA stands for enzyme-linked immunosorbent assay.
Experiment [11] has the same target. In words: ELISA kit PBL #41105 on Vero supernatant; read against human IFN-α2a standard curve; unit not given; second of two values.

As for “Cynomolgus IFN-α protein SEQ ID 60, expressed in Vero tissue culture supernatant (from UniProt P32881 24-189) (ligand)”, in experiment [1], the % Neutralization of Luciferase Induction by anti-Type I IFN Receptor Antibody (25 µg/mL) was above 99% and the Luciferase Induction Activity (U/mL) is 48900 U/mL.
In experiment [1], “Cynomolgus IFN-α protein SEQ ID 46, expressed in Vero tissue culture supernatant (from UniProt P01571 24-189) (ligand)” had a % Neutralization of Luciferase Induction by anti-Type I IFN Receptor Antibody (25 µg/mL) above 99% and a Luciferase Induction Activity (U/mL) of 2700 U/mL.
For “Cynomolgus IFN-α protein SEQ ID 62, expressed in Vero tissue culture supernatant (from UniProt P01571 24-189) (ligand)”, in that order: above 99% and 16000 U/mL.
The corresponding values for “Cynomolgus IFN-α protein SEQ ID 54, expressed in Vero tissue culture supernatant (from UniProt P01568 24-188) (ligand)” are above 99% and 11600 U/mL.
For “Cynomolgus IFN-α protein SEQ ID 66, expressed in Vero tissue culture supernatant (from UniProt P01563 24-188) (ligand)”, in that order: above 99% and 6630 U/mL.
For “Cynomolgus IFN-α protein SEQ ID 42, expressed in Vero tissue culture supernatant (from UniProt P01571 24-189) (ligand)”, in experiment [1], the % Neutralization of Luciferase Induction by anti-Type I IFN Receptor Antibody (25 µg/mL) is above 99% and the Luciferase Induction Activity (U/mL) turned out to be 36700 U/mL.
As to “Human IFN-α Multi-Subtype ELISA kit, PBL # 41105 (kit antibodies) (antibody)”, the ELISA estimate of IFN-α protein level in tissue culture supernatant in [2] is 287 and 566; in experiment [3], 187 and 123; in experiment [4], above 1120; in [5] it was 289 and 414; in experiment [6] it was above 1120; in experiment [7] it was > 651 and 1000. The ELISA estimate of IFN-α protein level in tissue culture supernatant in experiment [8] is 75 and 95; in experiment [9] it was > 651 and 1500; in experiment [10], 8; in [11] it was 8.
For “Cynomolgus IFN-α protein SEQ ID 58, expressed in Vero tissue culture supernatant (from UniProt P01570 24-189) (ligand)”, in experiment [1], the % Neutralization of Luciferase Induction by anti-Type I IFN Receptor Antibody (25 µg/mL) was above 99% and the Luciferase Induction Activity (U/mL) amounted to 8950 U/mL.

B1: Cynomolgus IFN-α protein SEQ ID 56, expressed in Vero tissue culture supernatant (ligand)
chain: CDLPQTHSLGHRRALILLAQMGRISPFSCLKDRHDFGFPQEEFDGNQFQKAQAMSVLHEMIQQTFNLFSTKDSSAAWEQNLLEKFSAELYQQLNDLKACVIAEPGMEDTPLMNEDSILAVKKYFQRITLYLTEKKYSPCAWEVVRAEIMRSLSFSTNLQKRLRRKD
Take B1: in experiment [1], the % Neutralization of Luciferase Induction by anti-Type I IFN Receptor Antibody (25 µg/mL) is above 99% and the Luciferase Induction Activity (U/mL) was determined as 822 U/mL.

B2: Cynomolgus IFN-α protein SEQ ID 44, expressed in Vero tissue culture supernatant (ligand)
chain: CDLPQTHSLGHRRALILLAQMGRISPFSCLKDRRDFAFPQEEFDGNQFQKAQAMSVLHEMIQQTFNLFSTKDSSAAWEQNLLEKFSAELYQQLNDLKACVIAEPGMEDTPLMNEDSILAVKKYFQRITLYLTEKKYSPCAWEVVRTEIMRSLSFSTNLQKRLRRKD
Take B2: in experiment [1], the % Neutralization of Luciferase Induction by anti-Type I IFN Receptor Antibody (25 µg/mL) was above 99% and the Luciferase Induction Activity (U/mL) was determined as 2830 U/mL.

B3: Cynomolgus IFN-α protein SEQ ID 50, expressed in Vero tissue culture supernatant (ligand)
chain: CNPSQTHNMNNRRTLMLMAQMRRISPFSCLKDRNDFEFPQEEFDGNQFQNTQAISVLHEMMQQTFNLFSTKDSSAAWDETLLDKFYIELFQQLNDLEACVIQEAGVEETPLMNEDSILAVRKYFQRITLYLMEKKYSPCAWEVVRAEIMRSLSFSTNLQKRLRRKD
For the molecule B3, in experiment [1], the % Neutralization of Luciferase Induction by anti-Type I IFN Receptor Antibody (25 µg/mL) is above 99% and the Luciferase Induction Activity (U/mL) is 8040 U/mL.

B4: Cynomolgus IFN-α protein SEQ ID 52, expressed in Vero tissue culture supernatant (ligand)
chain: MALSFSLLMAVVVLSYKSICSLGCDLPQTHSLGHRRALILLAQMQRISLPSCLKDRHDFAFLQEFDGNQFQKAQAMSVLHEMIQQTFNLLSTKDSSAAWDETLLDKFYIELFQQLNDLEACVIQEAGVEETPLMNEDSILAVRKYFQRITLYLTEKKYSPCAWEVVRAEIMRSLSFSTNLQKRLGRKD
As for B4, in experiment [1], the % Neutralization of Luciferase Induction by anti-Type I IFN Receptor Antibody (25 µg/mL) is above 99% and the Luciferase Induction Activity (U/mL) was 515 U/mL.

B5: Cynomolgus IFN-α protein SEQ ID 48, expressed in Vero tissue culture supernatant (ligand)
chain: MALSFSLLMAVVVLSYKSICSLGCDPPRTHSLGHRRALILLAQMERISPFSCLKDRCDFAFPQEEFDGNQFQKAQAMSVLHEMIQQTFNLFSTKDSSAAWEQNLLEKFSAELYQQLNDLKACVIAEPGMEETLLMNEDSILAVKKYFQRITLYLTEKKYSPCAWEVVRAEIMRSLSFSTNLQKRLRRKD
In [1], B5 returned a % Neutralization of Luciferase Induction by anti-Type I IFN Receptor Antibody (25 µg/mL) above 99% and a Luciferase Induction Activity (U/mL) of 2170 U/mL.
